T1: Mcl-1, Q07820
T1 chain: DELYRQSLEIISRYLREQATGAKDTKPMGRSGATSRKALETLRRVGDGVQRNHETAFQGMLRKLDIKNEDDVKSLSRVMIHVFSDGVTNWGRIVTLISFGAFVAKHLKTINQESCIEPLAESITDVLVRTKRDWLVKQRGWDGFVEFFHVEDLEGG

T2: Bfl-1, Q16548
T2 chain: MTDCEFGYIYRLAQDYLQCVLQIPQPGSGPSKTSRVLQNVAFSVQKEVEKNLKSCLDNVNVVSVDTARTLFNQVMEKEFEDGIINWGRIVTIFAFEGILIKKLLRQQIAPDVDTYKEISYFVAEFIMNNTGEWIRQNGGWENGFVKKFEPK


What follows are binders tested against Bcl-xL, Q07817 (assay: peptide SPOT array, c-Myc-tagged receptor at 1 uM or 100 nM, anti-c-Myc-Cy3).
Chain of Bcl-xL, Q07817 (Q07817 1-209): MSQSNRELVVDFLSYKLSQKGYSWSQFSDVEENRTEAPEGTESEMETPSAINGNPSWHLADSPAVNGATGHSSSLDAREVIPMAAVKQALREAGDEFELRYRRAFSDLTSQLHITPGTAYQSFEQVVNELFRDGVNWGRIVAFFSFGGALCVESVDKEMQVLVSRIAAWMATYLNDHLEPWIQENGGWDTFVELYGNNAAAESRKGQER

Row | Binder | SPOT signal as a fraction of Bim BH3's signal on the same receptor and array
1 | AFGLGDLPNLLGLVLDQLGDTERKRR [ADAMTS14] | 0.07
2 | RMIVDCVSSHLKKTLDGAKTFIIFLC [BBS10] | 0.61
3 | SMRRNAMGVGLVFEADLFTTRHISHW [DNAH10] | 0.24
4 | KLALEQRCRELRARGRRLEETLPRRI [KIF19] | 1.22
5 | SSTMGQVGRQLAIILDDINRRYDSEF [BAK1] | 0.02
6 | VLLTLLVAAVDRCQGQDVQEAGSCVQ [COL2A1] | 0.05
7 | MEMYQPSAVVDQCGADSLSGDRLGCF [HDAC2] | 0.06
8 | ISSLDLLPYGLRYIAKVLKNSIHEKF [IQGAP2] | 0.8
9 | SQGKHGFTMADNAFGDMTNEEFRQMM [CTSL2] | 0.06
10 | QAGPVSSGLALRKLGDRVQLLNLLVT [CCDC57] | 1.06
11 | NGGLLEFHKSDQEIGDKNDHWFDIDP [DZIP3] | 0.12
12 | CHGLRELALNDHLLSDELLLALSSEK [FBXL3] | 0.06
13 | APEEDFFSIHDRIVGDWTEGLFNACG [CYBB] | 0.05
14 | QCPIFRLGDIDRETGDNFSDVAIQGG [P2RX7] | 0.05

The remaining lines, values ahead:

Row | SPOT signal as a fraction of Bim BH3's signal on the same receptor and array | Binder
15 | 0.07 | ADVHGIWSRLFCDFGDEFEVLDTTGE [UBA6]
16 | 0.08 | SGLPGLSSVDINNFGDSINESEGIPL [MKI67]
17 | 0.07 | KIETTPESRYLAQILDSVSLTCSTTG [VCAM1]
18 | 0.06 | AELEVECATQDRRFGDKLNFRQKLLN [PMAIP1]
19 | 0.07 | WLKGDILGEKDVNLADCLCNEDLESR
20 | 0.06 | GYPFNDVCQWFIDRLDLIFVVFDPTK [SRL]
21 | 0.32 | FVGYNSTGAELRHWLDMLANPRRPIA [SYT1]
22 | 0.74 | TRRSMVFARHLREVLDEFRSRHLNST [POFUT2]
23 | 1.19 | FKAWGKFGGAFCRYLDEMKEIQERQR [PURB]
24 | 0.06 | LFWTPLLVVLLAGLGDTEAQQTTLHP [SGCA]
25 | 0.07 | WLKGDILGEKLVNLADCLCNEDLESR

Target: T1, Mcl-1, Q07820
Assay: as above

Row | Binder | SPOT signal as a fraction of Bim BH3's signal on the same receptor and array
26 | AFGLGDLPNLLGLVLDQLGDTERKRR [ADAMTS14] | 0.06
27 | RMIVDCVSSHLKKTLDGAKTFIIFLC [BBS10] | 0.21
28 | SMRRNAMGVGLVFEADLFTTRHISHW [DNAH10] | 0.32
29 | KLALEQRCRELRARGRRLEETLPRRI [KIF19] | 0.58
30 | SSTMGQVGRQLAIILDDINRRYDSEF [BAK1] | 0.01
31 | VLLTLLVAAVDRCQGQDVQEAGSCVQ [COL2A1] | 0.05
32 | MEMYQPSAVVDQCGADSLSGDRLGCF [HDAC2] | 0.04
33 | ISSLDLLPYGLRYIAKVLKNSIHEKF [IQGAP2] | 0.57
34 | SQGKHGFTMADNAFGDMTNEEFRQMM [CTSL2] | 0.06
35 | QAGPVSSGLALRKLGDRVQLLNLLVT [CCDC57] | 0.57
36 | NGGLLEFHKSDQEIGDKNDHWFDIDP [DZIP3] | 0.04
37 | CHGLRELALNDHLLSDELLLALSSEK [FBXL3] | 0.04
38 | APEEDFFSIHDRIVGDWTEGLFNACG [CYBB] | 0.03
39 | QCPIFRLGDIDRETGDNFSDVAIQGG [P2RX7] | 0.04

Next, values leading:

Row | SPOT signal as a fraction of Bim BH3's signal on the same receptor and array | Binder
40 | 0.04 | ADVHGIWSRLFCDFGDEFEVLDTTGE [UBA6]
41 | 0.04 | SGLPGLSSVDINNFGDSINESEGIPL [MKI67]
42 | 0.04 | KIETTPESRYLAQILDSVSLTCSTTG [VCAM1]
43 | 0.05 | AELEVECATQDRRFGDKLNFRQKLLN [PMAIP1]
44 | 0.04 | WLKGDILGEKDVNLADCLCNEDLESR
45 | 0.05 | GYPFNDVCQWFIDRLDLIFVVFDPTK [SRL]
46 | 0.21 | FVGYNSTGAELRHWLDMLANPRRPIA [SYT1]
47 | 0.9 | TRRSMVFARHLREVLDEFRSRHLNST [POFUT2]
48 | 1.07 | FKAWGKFGGAFCRYLDEMKEIQERQR [PURB]
49 | 0.04 | LFWTPLLVVLLAGLGDTEAQQTTLHP [SGCA]
50 | 0.05 | WLKGDILGEKLVNLADCLCNEDLESR

Target: T2, Bfl-1, Q16548
Assay: as above

Row | Binder | SPOT signal as a fraction of Bim BH3's signal on the same receptor and array
51 | AFGLGDLPNLLGLVLDQLGDTERKRR [ADAMTS14] | 0.05
52 | RMIVDCVSSHLKKTLDGAKTFIIFLC [BBS10] | 0.24
53 | SMRRNAMGVGLVFEADLFTTRHISHW [DNAH10] | 0.3
54 | KLALEQRCRELRARGRRLEETLPRRI [KIF19] | 0.62
55 | SSTMGQVGRQLAIILDDINRRYDSEF [BAK1] | 0.01
56 | VLLTLLVAAVDRCQGQDVQEAGSCVQ [COL2A1] | 0.03
57 | MEMYQPSAVVDQCGADSLSGDRLGCF [HDAC2] | 0.03
58 | ISSLDLLPYGLRYIAKVLKNSIHEKF [IQGAP2] | 0.64
59 | SQGKHGFTMADNAFGDMTNEEFRQMM [CTSL2] | 0.05
60 | QAGPVSSGLALRKLGDRVQLLNLLVT [CCDC57] | 0.39
61 | NGGLLEFHKSDQEIGDKNDHWFDIDP [DZIP3] | 0.04
62 | CHGLRELALNDHLLSDELLLALSSEK [FBXL3] | 0.04
63 | APEEDFFSIHDRIVGDWTEGLFNACG [CYBB] | 0.03
64 | QCPIFRLGDIDRETGDNFSDVAIQGG [P2RX7] | 0.03

Results, then the binder that gave them:

Row | SPOT signal as a fraction of Bim BH3's signal on the same receptor and array | Binder
65 | 0.04 | ADVHGIWSRLFCDFGDEFEVLDTTGE [UBA6]
66 | 0.04 | SGLPGLSSVDINNFGDSINESEGIPL [MKI67]
67 | 0.04 | KIETTPESRYLAQILDSVSLTCSTTG [VCAM1]
68 | 0.07 | AELEVECATQDRRFGDKLNFRQKLLN [PMAIP1]
69 | 0.05 | WLKGDILGEKDVNLADCLCNEDLESR
70 | 0.05 | GYPFNDVCQWFIDRLDLIFVVFDPTK [SRL]
71 | 0.21 | FVGYNSTGAELRHWLDMLANPRRPIA [SYT1]
72 | 0.61 | TRRSMVFARHLREVLDEFRSRHLNST [POFUT2]
73 | 1.19 | FKAWGKFGGAFCRYLDEMKEIQERQR [PURB]
74 | 0.04 | LFWTPLLVVLLAGLGDTEAQQTTLHP [SGCA]
75 | 0.06 | WLKGDILGEKLVNLADCLCNEDLESR
